{"source": "paper PMC7164637", "target": "2019-nCoV spike (S) glycoprotein, prefusion-stabilized ectodomain (residues 1-1208, two stabilizing proline mutations) (2019-nCoV)", "assay": "cryo-EM structure"}
{"substance": "2019-nCoV spike (S) glycoprotein, prefusion-stabilized ectodomain (residues 1-1208, two stabilizing proline mutations) (domain or fragment)", "values": [{"measurement": "stoichiometry N", "value": 3}]}
